Measured values as given in the nanobody polyreactivity screen of Harvey et al. (2022).

Experiment: yeast display, Sf9 membrane polyspecificity reagent, FACS + sequencing; frameworks hold sequencing errors
Procedure, shortened: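 Using colony PCR, genes from sorted yeast display clones were amplified, then sequenced on MiSeq at 2 × 250 and filtered by CDR length. The clones had been stained with 10% biotinylated, detergent-solubilized Sf9 membrane reagent for 1 hour at 4 °C and sorted by FACS into low and high (top ~1%) gates on anti-HA and streptavidin fluorescence. Polyreactivity labels come from the gate of origin.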

Sequence | polyreactivity (PSR sort gate)
QVQLVESGGGLVQAGGSLRLSCAASGRTFGWNAMGWYRQAPGKERELVAAISRTGNTYYADSVKGRFTISRDNAKNTVYLQMNSLKPEDTAVYYCAKGRYYTPTYFRGVDLYDYWGQGTQVTVSS | low polyreactivity
QVQLVESGGGLVQAGGSLRLSCAASGRTFGWYAMGWYRQAPGKERELVASITQRGGRTYYADSVKGRFTISRDNAKNTVYLQMNSLIPEDTAVYYCAARGATVSSRIYGYWGQGTQVTVSS | high polyreactivity
QVQLVESGGGLVQAGGSLRLSCAASGRTFGYNAMGWYREAPGKERELVPAITTSGGSTYYADSVKGRFTISRDNAKNSVYLQMNSRKPEDTAVYYCAADYSFFYRYTWLVYIFDYDYWGQGTQVTVSS | low polyreactivity
QVQLVESGGGLVQAGGSLRLSCAASGRTFGYNAMGWYRHAPGKERELVAAISSSGGSTYYADSVKGRFTISRDNAKNTVYLQMNSLKPEDTEVYYCATQGYSWAHGSDYWGQGTQVTVSS | low polyreactivity
QVQLVESGGGLVQAGGSLRLSCAASGRTFGYNAMGWYRQAPGKERELVAAIRTIGDSTYYADSVKGRFTISRDNAKNTVYLQMNSLKPEDTAVYYCAARKLRSRYDYWGQGTQVTVSS | high polyreactivity
QVQLVESGGGLVQAGGSLRLSCAASGRTFGYNAMGWYRQAPGKERELVASISYSGGSTYYADSVKGRFTISRDTAKNTVYLQMNSLKPEDTAVYYCSAKYWYWQSPSKYYYWGQGTQVTVSS | high polyreactivity
QVQLVESGGGLVQAGGSLRLSCAASGRTFGYNAMGWYRQAPGKERELVATITSSDSTYYADSVKGRFTISRDNAKNTVYLQMNSLKPEDTAVYYCAADDVGWGYYVYSYPYDYWGQGTQVTVSS | low polyreactivity
QVQLVESGGGLVQAGGSLRLSCAASGRTFGYTMGWYRQAPGKERELVAAITRSVTTYYADSVKGRFTISRDNAKNTVYLQMNSLKPEDTAVYYCAAVNTLREMYWGQGTQVTVSS | high polyreactivity
QVQLVESGGGLVQAGGSLRLSCAASGRTFGYYAMGWYRQAPGKEREFVAAISWSGGSTYYADSVKGRFTISRDNAKNTVYLQMNSLKPEDTAVYYCATDTTYYAGSWYGYWGQGTQVTVSS | low polyreactivity
QVQLVESGGGLVQAGGSLRLSCAASGRTFGYYAMGWYRQAPGKERELVAAISSRGGSTSYADSVKGRFTISRDNAKNTVYLQMNSLKPEDTAVYYCAVGRPRPKYEYDYWGQGTQVTVSS | high polyreactivity
QVQLVESGGGLVQAGGSLRLSCAASGRTFGYYAMGWYRQAPGKERELVAAISWRTVSTHYADSVKGRFTISRDNAKNTVYLQMNSLKPEDTAVYYCAARWGKIRGFHLDYWGQGTQVTVSS | high polyreactivity
QVQLVESGGGLVQAGGSLRLSCAASGRTFGYYAMGWYRQAPGKERELVAAITRTGGSTHYADSVKGRFTISRDNAKNTVYLQMNSLKPEDTAVYYCARDYRYTIPYDYWGQGTQVTVSS | low polyreactivity
QVQLVESGGGLVQAGGSLRLSCAASGRTFGYYAMGWYRQAPGKERELVAAITWIGGSTYADSVKGRFTISRDNAKNTVYLQMNSLKPEDTAVYYCAADPSVWSDYYYWGQGTQVTVSS | high polyreactivity
QVQLVESGGGLVQAGGSLRLSCAASGRTFGYYAMGWYRQAPGKVRELVASISSSGGNTYYADSVKGRFTISRDNAKNNVYLQMNSLKPEDTAVYYCAATYGWWPRDYYYWGQGTQVTVSS | high polyreactivity
QVQLVESGGGLVQAGGSLRLSCAASGRTFGYYDMGWYRPAPGKERELVAAITWIDGRTYYADSVKGRFTISRDNAKNTVYLQMNSLKPEDTAVYYCAKRHKAGFYRTYRYGYWGQGTQVTVSS | high polyreactivity
QVQLVESGGGLVQAGGSLRLSCAASGRTFGYYGMGWYRQAPGKERELVAAIRRRSGSTYYADSVKGRFTISRDNSKNTFYLQMNSLKPEDTAVYYCNQIRVSNFDYWGQGTQVTVSS | high polyreactivity
QVQLVESGGGLVQAGGSLRLSCAASGRTFGYYGMGWYRQAPGKERELVAAITGSGGSTYYADSVKGRFTISRDNAKNTVYLQMNSLKPEDTAVYYCGATDLSRWTLYDYCGQGTQVTVSS | high polyreactivity
QVQLVESGGGLVQAGGSLRLSCAASGRTFGYYGMGWYRQAPGKERELVASINFSSGSTFYADSVKGRFTISRDNAKNTVYLQMNSLKPEDTAVYYCAARAKAVRSYAYNYWGQGTQVTVSS | low polyreactivity
QVQLVESGGGLVQAGGSLRLSCAASGRTFGYYTMGWYRQAPGKERELVARINYIGSSTYYADSVKGRFTISRDNAKNTVYLHMNSLKPEDTAVYYSNADNARGRSGVRRYYWGQGTQVTVSS | high polyreactivity
QVQLVESGGGLVQAGGSLRLSCAASGRTFHAYVMGWYRQAPGKERELVADISSGGDTYADSVKGRFTISRDNAKNTVYLQMNSLKPEDTAVYYCAVDLIQDESGYWGQGTQVTVSS | low polyreactivity
QVQLVESGGGLVQAGGSLRLSCAASGRTFHGNAKGWYRTAPGKERELVAAISYSGGRTYYADSVKARFTISRDNAKNTVYLQMNSLKPEDTAVYYCAAWGSSYSFDYWGQGTQVTVSS | high polyreactivity
QVQLVESGGGLVQAGGSLRLSCAASGRTFHGYAMGWSRQAPGKERELVARINWSDGRTYYADSVKGRFTISRDNAKNTVYLQMNSLKPADTGVYYCAARLYSSASGVRWIKFDYWGQGTQVTVSS | low polyreactivity

Sequence | polyreactivity (PSR sort gate)
QVQLVESGGGLVQAGGSLRLSCAASGRTFHRYAMGWYRQAPGKERELVAAINWRGGSTYYADSVKGRFTISRDNAKNTVYLQMNILKPEDTEVYYCAAKTTTPYRYIYYYWGQGTQVTVSS | high polyreactivity
QVQLVESGGGLVQAGGSLRLSCAASGRTFHRYVMGWYRQAPGKERELVAAITRSGGITYYADSVKGRFTISRDNAKNTVYLQMNSLKPEDNAVYYCAKDDLTASGFDYWGQGTQVTVSS | low polyreactivity
QVQLVESGGGLVQAGGSLRLSCAASGRTFHSYAMGWYRQAPGKERELVAVITRRGGSTYYADSVKGRFTISRDNAKNTVYLQMNSLKPEDTAVYYCNKGKSYTYDYWGQGTQVTVTS | high polyreactivity
QVQLVESGGGLVQAGGSLRLSCAASGRTFHSYAMGWYRQAPGKEWELVAGISWGGTRTTYADSVKGRFTISRDNSKNTVYLQMNSLKPEDTAVYYCNAVYYALGRSPPDYGYWGQGTQVTVSS | low polyreactivity
QVQLVESGGGLVQAGGSLRLSCAASGRTFHVYARGWYRQAPGKERELVAAISGRTGSTYYADSVKGRFTISRDNAKNTVYLQMNSLKPEDTAVYYCAARRWSHGTGYGSWGQGTQVTVSS | high polyreactivity
QVQLVESGGGLVQAGGSLRLSCAASGRTFHYYVMGWYRQAAGKERELVAAISRSGGNTYYADSVKGRFTISRDNAKNTVYLQMNSLKPEDTAVYYCAAALSAYVKWDYYYWGQGTQVTVSS | low polyreactivity
QVQLVESGGGLVQAGGSLRLSCAASGRTFHYYVMGWYRQAPGKERELVAAISRSGGNTYYADSVKGRFTISLDNAKNTVYLQMNSLKPEDTAVYYCAAALSAYVKWDYYYWGQGTQVTVSS | low polyreactivity
QVQLVESGGGLVQAGGSLRLSCAASGRTFIFNAMGWYRQAPGKERELVAAISSGGGTNYADSVKWRFTISRDNAKNTVYLQMNSMKPEDTAVYYCAAVPRDHYSYVYDGDKYDYWGQGTQVTVSS | low polyreactivity
QVQLVESGGGLVQAGGSLRLSCAASGRTFIGNAMGWSRQAPGKERELVAGIDSDGSTNYADSVKGRFTISRDNAKNTVYLQMNSLKPEDTAVYYCAAVQGYRFYEYYYWGQGTQVTVSS | low polyreactivity
QVQLVESGGGLVQAGGSLRLSCAASGRTFIGYAMGWYRQAPGKERELVAAISSRGGRTYYADSVKGRFTISRDNAKNTVYLQMNSLKPEDTAVYYCAAGRVKHSGYDYWGQGTQVTVSS | high polyreactivity
QVQLVESGGGLVQAGGSLRLSCAASGRTFIGYAMGWYRQAPGKERELVAAISSSGGRTYYADSVKGRFTISRDNAKNTVYLQMNSLKPEDTAVYYCNAVRYVLGYSYDYNYWGQGTQVTVSS | high polyreactivity
QVQLVESGGGLVQAGGSLRLSCAASGRTFIGYAMGWYRQAPGKERELVAAITSSGGSTYYSDSVKGRFTISRDNAKNTVYLQMNSLKPEDTAVYYCAAGRHSEDNYWGQGTQVTVSS | high polyreactivity
QVQLVESGGGLVQAGGSLRLSCAASGRTFIKYARGWYRPAPGKERELVAAISRNGGSTNYADSVKGRFTISRDNAKNTVYFQMNSLKPEDTAVYYCAAVGTVSRTVGYNYWGQGTQVTVSS | high polyreactivity
QVQLVESGGGLVQAGGSLRLSCAASGRTFIPNAMGWYRQAPGKERELVARITLRGGSTYYADSVKGRFTISRDNAKNTVYLQMNSLKPEDTAVYYCAAVFSRKGLRYDYWGQGTQVTVSS | low polyreactivity
QVQLVESGGGLVQAGGSLRLSCAASGRTFIPYAMGWYRQAPGKERELVATISRSGGSTYYADSVKGRFTISRDNAKNTVYLQMNSLKPEDSAVYYCAAQWVRKSGREGYWGQGTQVTVSS | high polyreactivity
QVQLVESGGGLVQAGGSLRLSCAASGRTFIRYAMGWYRQAPGKERELVAAISSRGGRTHYADSVKGRFTISRDNAKNTVYLQMNSLKPEDTAVYYCAADLTYVTVPGASYDYWGQGTQVTVSS | low polyreactivity
QVQLVESGGGLVQAGGSLRLSCAASGRTFISNAMGWYRQAPGKERELVADINGGGSTYYADSVKGRFTISRDNAKNTVYLQINSLKPEDTAVYYCAADVWTLDPDEYDYWGQGTQVTVSS | low polyreactivity
QVQLVESGGGLVQAGGSLRLSCAASGRTFITNAMGWSRPAPGKEREFVAAIRGGRGSTYYADSVKGRFTISRDNAKNTVYLQMNSVKPEDTAVYFCAARYWLFPRGYNYWGQGTQVTVSS | high polyreactivity
QVQLVESGGGLVQAGGSLRLSCAASGRTFIVYAMGWYRQAPGKERELVAAITTSLGRTYYADSVKGRFTISRDNAKNTVYLQMNSLKPEDTAVYYCAADRLDGYSEYYYWGQGTQVTVSS | low polyreactivity
QVQLVESGGGLVQAGGSLRLSCAASGRTFIYNAMGWYRQAPGKERELVAAISTSGGRTYYADSVKGRFTISRDNAKNTVYLQMNSLKPEDTAVYYCNAVRSYRMDYWGQGTQVTVSS | high polyreactivity
QVQLVESGGGLVQAGGSLRLSCAASGRTFIYYAMGWYTQAPRKERDYVAIITWNGTSTNYADSVKGRFTISRDNAKNTVYLQMNSLYPEDTAVYYCAASFWTDYYRYDYWGQGTQVTVSS | low polyreactivity
